Measurements: article PMC11538452 (Nature Communications, 2024)
Numbering of substitutions follows the chain as printed. Where two headings read alike, the source gives them in different places.

Tests used:
human CD40-Fc = molecular target: T1, human CD40-Fc (human, UniProt P25942); experiment: SPR; wildtype against deimmunized variant on the CD40 protein (Supplementary Fig. 3B); format of this experiment not told in what was shown; details: both partners purified
T1 construct: also called hCD40-Fc
T1 sequence (P25942 21-193): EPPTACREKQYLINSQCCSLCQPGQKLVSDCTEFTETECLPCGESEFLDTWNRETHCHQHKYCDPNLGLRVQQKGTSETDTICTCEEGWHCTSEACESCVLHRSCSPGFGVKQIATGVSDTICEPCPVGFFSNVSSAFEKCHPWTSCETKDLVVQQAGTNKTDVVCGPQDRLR

[1] = molecular target: T2, pTag_(18aa) (original 18 amino acid peptide tag) (Clostridium tetani, tetanus …); experiment: SPR; […]; 25 °C, HBS with 0.05% Tween20, pH 7.5; Biacore T200, 1:1 Langmuir model; details: both partners purified
pTag_(12aa) = pTag_(12aa) (Clostridium tetani, tetanus …); experiment: as above; details: both partners purified
[2] = molecular target: T2, pTag_(18aa) (original 18 amino acid …)
[3] = molecular target: T3, pTag9aa (free, without cargo) (Clostridium tetani, tetanus …)
[4] = molecular target: T3, pTag9aa (free, without cargo); experiment: SPR; […]; 25 °C, HBS with 0.05% Tween20, pH 7.5; Biacore T200, 1:1 Langmuir model; details: both partners purified

B1: A9 anti-CD40 antibody, wildtype variant (before deimmunization) (antibody, V domains shown)
VH: EVQLLESGGGLVQPGGSLRLSCAASGFTFSSYAMSWVRQAPGKGLEWVSGISGYSGSTYYADSVKGRFTISRDNSKNTLYLQMNSLRAEDTAVYYCARYYSYYGYYYFDYWGQGTLVTVSS
VL: DIQMTQSPSSLSASVGDRVTITCRASQSISSYLNWYQQKPGKAPKLLIYAASSLQSGVPSRFSGSGSGTDFTLTISSLQPEDFATYYCQQGYPYPFTFGQGTKLEIK
notes: also called WT; original variant
Human CD40-Fc
  Kd: 3.4 nM

B2: murine anti-pTag scFv (scFv, V domains shown)
VH: EVRLLQSGAALVRPGASVKLSCTASGFNIKDFNIHWVKQRPEQGLEWIGRIDPENGDAEYVPKFQVRATMTTDTSSNTVYLHLSSLTSGDTAVYYCTTGSYDLDVEYWGQGTTLTVSS
VL: ELQMTQSPSSLSASLGDTVTITCHASQNINVWLSWYQQRPGNIPKLLIYKASTLHTGVPSRFRGSGSGTGFTLTISSLQPEDIATYYCQQGQSYPLTFGAGTKLELK
notes: also called murine scFv; mscFv
[1]
  Kd: 4 nM
pTag_(12aa)
  binding result: binds

B3: BiA9*2_HF (antibody, V domains shown)
VH: QVQLVQSGAEVKKPGASVKVSCKASGFNIKDFNIHWVRQAPGQGLEWIGRIDPENGDAEYVPKFQGRVTMTRDTSTSTVYMELSSLRSEDTAVYYCTTGSYDLDVEYWGQGTLVTVSS
VL: DIQMTQSPSSLSASVGDRVTITCHASQNINVWLSWYQQKPGKAPKLLIYKASTLHTGVPSRFSGSGSGTDFTLTISSLQPEDFATYYCQQGQSYPLTFGQGTKLEIK
[2]
  binding result: binds
[3]
  binding result: binds

B4:  (scFv, V domains shown)
VH: B3 VH with N55S
VL: B3 VL
notes: also called humanized scFv; humanized single chain clone SG; source: E. coli, purified (Ni-NTA)
[1]
  binding result: binds
[4]
  binding result: binds
pTag_(12aa)
  binding result: binds
